Results reported in the supplement of paper PMC9112550, “Optimization of the antimicrobial peptide Bac7 by deep mutational scanning” (BMC Biology, 2022).

System: Escherichia coli TOP10
Assay: shrunken log2 fold change of peptide-encoding DNA abundance (4.5 h post-induction vs induction); higher = less antimicrobial activity (less host growth inhibition)
Conditions: time post-induction: 4.5 h; library: site-saturation at positions 5, 18, 19, 20
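Further: peptides expressed intracellularly from a pBAD plasmid library in pooled LB shake-flask culture, induced with 0.3% L-arabinose, DNA abundance read by NGS, three biological replicates, DESeq2 with apeglm shrinkage.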

Sequence	shrunken log2 fold change
RRIRVRPPRLPRPRPRPTNHPRP	-0.384
RRIRLRPPRLPRPRPRPNRHPRP	-0.312
RRIRPRPPRLPRPRPRPLRHPRP	0.21
RRIRFRPPRLPRPRPRPTERPRP	-0.22
RRIRWRPPRLPRPRPRPWLMPRP	0.116
RRIRQRPPRLPRPRPRPDTFPRP	-0.00762
RRIRNRPPRLPRPRPRPRSFPRP	0.0523
RRIRPRPPRLPRPRPRPWWNPRP	-0.227
RRIRWRPPRLPRPRPRPTRTPRP	0.83
RRIRRRPPRLPRPRPRPTKIPRP	0.0521
RRIRIRPPRLPRPRPRPSLEPRP	-0.05
RRIRGRPPRLPRPRPRPLRVPRP	1
RRIRLRPPRLPRPRPRPLEAPRP	0.41
RRIRIRPPRLPRPRPRPCRLPRP	-0.468
RRIRRRPPRLPRPRPRPPGAPRP	0.972
RRIRARPPRLPRPRPRPPIGPRP	0.287
RRIRRRPPRLPRPRPRPPKGPRP	0.706
RRIRARPPRLPRPRPRPMMWPRP	0.617
RRIRFRPPRLPRPRPRPPEYPRP	-0.0154
RRIRWRPPRLPRPRPRPMRRPRP	0.481
RRIRVRPPRLPRPRPRPSKRPRP	-0.229
RRIRCRPPRLPRPRPRPMVIPRP	-0.373
RRIRWRPPRLPRPRPRPCIIPRP	-0.222
RRIRSRPPRLPRPRPRPTMMPRP	-0.253
RRIRRRPPRLPRPRPRPLSDPRP	0.144

Sequence	shrunken log2 fold change
RRIRDRPPRLPRPRPRPHAPPRP	0.144
RRIRMRPPRLPRPRPRPINPPRP	-0.0782
RRIRARPPRLPRPRPRPCPSPRP	0.0639
RRIRLRPPRLPRPRPRPIYYPRP	-0.561
RRIRVRPPRLPRPRPRPNKCPRP	-0.616
RRIRFRPPRLPRPRPRPDGDPRP	0.0613
RRIRHRPPRLPRPRPRPLPDPRP	-0.299
RRIRFRPPRLPRPRPRPGNLPRP	-0.13
RRIRWRPPRLPRPRPRPMAFPRP	-0.0177
RRIRYRPPRLPRPRPRPVTHPRP	0.00542
RRIRYRPPRLPRPRPRPSCDPRP	-0.74
RRIRGRPPRLPRPRPRPPRGPRP	0.938
RRIRLRPPRLPRPRPRPQPGPRP	0.0607
RRIRSRPPRLPRPRPRPKTFPRP	-0.24
RRIRTRPPRLPRPRPRPNWVPRP	-0.159
RRIRERPPRLPRPRPRPVNDPRP	-0.0156
RRIRPRPPRLPRPRPRPRYKPRP	-0.269
RRIRCRPPRLPRPRPRPHIPPRP	-0.245
RRIRPRPPRLPRPRPRPGAHPRP	0.355
RRIRDRPPRLPRPRPRPADKPRP	-0.0463
RRIRWRPPRLPRPRPRPSVWPRP	0.218
RRIRHRPPRLPRPRPRPLARPRP	0.113
RRIRERPPRLPRPRPRPAPQPRP	0.31
RRIRCRPPRLPRPRPRPDCYPRP	-0.0924
RRIRQRPPRLPRPRPRPRWHPRP	0.197

Sequence	shrunken log2 fold change
RRIRLRPPRLPRPRPRPVKNPRP	-0.176
RRIRCRPPRLPRPRPRPVTPPRP	0.23
RRIRRRPPRLPRPRPRPAEFPRP	0.0257
RRIRARPPRLPRPRPRPRGSPRP	0.708
RRIRCRPPRLPRPRPRPNAGPRP	-0.0355
RRIRMRPPRLPRPRPRPYYIPRP	-0.227
RRIRQRPPRLPRPRPRPTRAPRP	0.647
RRIRWRPPRLPRPRPRPYRCPRP	0.0623
RRIRFRPPRLPRPRPRPCIKPRP	-0.0867
RRIRDRPPRLPRPRPRPAVTPRP	-0.0403
RRIRTRPPRLPRPRPRPNMSPRP	-0.562
RRIRVRPPRLPRPRPRPEMVPRP	-0.0955
RRIRDRPPRLPRPRPRPGWVPRP	0.223
RRIRTRPPRLPRPRPRPRDWPRP	0.483
RRIRDRPPRLPRPRPRPKTWPRP	0.434
RRIRIRPPRLPRPRPRPPSIPRP	0.122
RRIRYRPPRLPRPRPRPYNLPRP	0.00739
RRIRHRPPRLPRPRPRPTMYPRP	0.000437
RRIRNRPPRLPRPRPRPESRPRP	0.114
RRIRSRPPRLPRPRPRPNDTPRP	-0.437
RRIRGRPPRLPRPRPRPDAEPRP	3.37
RRIRNRPPRLPRPRPRPHPKPRP	0.187
RRIRLRPPRLPRPRPRPLQSPRP	0.0468
RRIRTRPPRLPRPRPRPEFPPRP	0.0504
RRIRVRPPRLPRPRPRPSDRPRP	0.194

Sequence	shrunken log2 fold change
RRIRNRPPRLPRPRPRPIVQPRP	-0.236
RRIRARPPRLPRPRPRPAWIPRP	0.116
RRIRDRPPRLPRPRPRPTLKPRP	-0.0215
RRIRFRPPRLPRPRPRPPTQPRP	0.327
RRIRDRPPRLPRPRPRPLYVPRP	-0.17
RRIRNRPPRLPRPRPRPHGTPRP	-0.105
RRIRDRPPRLPRPRPRPRSYPRP	-0.0236
RRIRMRPPRLPRPRPRPDSVPRP	-0.045
RRIRKRPPRLPRPRPRPKSFPRP	-0.125
RRIRTRPPRLPRPRPRPCDPPRP	-0.072
RRIRVRPPRLPRPRPRPFRGPRP	0.0214
RRIRPRPPRLPRPRPRPVSDPRP	-0.0922
RRIRHRPPRLPRPRPRPFIFPRP	-0.656
RRIRTRPPRLPRPRPRPLCRPRP	-0.13
RRIRIRPPRLPRPRPRPGSPPRP	-0.19
RRIRNRPPRLPRPRPRPSSNPRP	-0.416
RRIRTRPPRLPRPRPRPISVPRP	-0.0512
RRIRVRPPRLPRPRPRPHYWPRP	-0.336
RRIRSRPPRLPRPRPRPHIGPRP	-0.0154
RRIRWRPPRLPRPRPRPHILPRP	-0.358
RRIRSRPPRLPRPRPRPEHPPRP	0.166
RRIRSRPPRLPRPRPRPKLCPRP	0.0502
RRIRARPPRLPRPRPRPFFIPRP	-0.211
RRIRWRPPRLPRPRPRPKFSPRP	0.346
RRIRLRPPRLPRPRPRPGNRPRP	-1.09

Sequence	shrunken log2 fold change
RRIRERPPRLPRPRPRPATHPRP	-0.264
RRIRSRPPRLPRPRPRPVIFPRP	-0.335
RRIRDRPPRLPRPRPRPCIAPRP	0.0755
RRIRKRPPRLPRPRPRPLQMPRP	-0.0261
RRIRIRPPRLPRPRPRPAYMPRP	-0.688
RRIRMRPPRLPRPRPRPCHRPRP	0.00646
RRIRPRPPRLPRPRPRPYPNPRP	-0.159
RRIRERPPRLPRPRPRPVKKPRP	-0.179
RRIRIRPPRLPRPRPRPTTLPRP	-0.506
RRIRYRPPRLPRPRPRPLTLPRP	-0.267
RRIRPRPPRLPRPRPRPEFMPRP	0.0793
RRIRCRPPRLPRPRPRPQNDPRP	-0.505
RRIRFRPPRLPRPRPRPPFMPRP	0.0431
RRIRCRPPRLPRPRPRPFAHPRP	-0.355
RRIRVRPPRLPRPRPRPPVYPRP	-0.329
RRIRERPPRLPRPRPRPRHAPRP	-0.0387
RRIRGRPPRLPRPRPRPVWNPRP	0.0596
RRIRMRPPRLPRPRPRPNMMPRP	-0.0235
RRIRARPPRLPRPRPRPFVNPRP	0.164
RRIRSRPPRLPRPRPRPVKWPRP	-0.03
RRIRVRPPRLPRPRPRPQPIPRP	-0.375
RRIRCRPPRLPRPRPRPISKPRP	-0.37
RRIRQRPPRLPRPRPRPFEHPRP	-0.00133
RRIRPRPPRLPRPRPRPDPKPRP	0.367
RRIRWRPPRLPRPRPRPVRNPRP	0.432
